From PMC11642994, “AGC family kinase of Entamoeba histolytica: Decoding the members biochemically” (PLOS Pathogens, 2024)

T1: EhAGCK2 WT (Entamoeba histolytica AGC family kinase 2, EHI_053040), full-length recombinant His-tagged protein (Entamoeba histolytica, UniProt C4M3C2 1-434)
T1 construct: source: E. coli C41(DE3), purified (Ni2+-NTA)
T1 sequence: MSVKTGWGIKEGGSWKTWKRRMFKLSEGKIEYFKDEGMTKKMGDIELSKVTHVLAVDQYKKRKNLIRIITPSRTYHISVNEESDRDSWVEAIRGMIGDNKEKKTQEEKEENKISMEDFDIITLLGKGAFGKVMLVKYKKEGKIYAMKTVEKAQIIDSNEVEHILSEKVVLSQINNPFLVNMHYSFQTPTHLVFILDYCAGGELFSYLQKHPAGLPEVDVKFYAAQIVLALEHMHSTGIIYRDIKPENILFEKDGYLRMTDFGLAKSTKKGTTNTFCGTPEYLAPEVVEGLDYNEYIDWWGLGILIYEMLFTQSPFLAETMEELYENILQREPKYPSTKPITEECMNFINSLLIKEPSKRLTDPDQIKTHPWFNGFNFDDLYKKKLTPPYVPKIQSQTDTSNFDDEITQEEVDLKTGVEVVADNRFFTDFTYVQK

T2: EhAGCK1 WT (Entamoeba histolytica AGC family kinase 1, EHI_188930), full-length recombinant His-tagged protein (Entamoeba histolytica, UniProt C4M2W0 1-433)
T2 construct: also called His-EhAGCK1; source: E. coli C41(DE3), purified (Ni2+-NTA)
T2 sequence: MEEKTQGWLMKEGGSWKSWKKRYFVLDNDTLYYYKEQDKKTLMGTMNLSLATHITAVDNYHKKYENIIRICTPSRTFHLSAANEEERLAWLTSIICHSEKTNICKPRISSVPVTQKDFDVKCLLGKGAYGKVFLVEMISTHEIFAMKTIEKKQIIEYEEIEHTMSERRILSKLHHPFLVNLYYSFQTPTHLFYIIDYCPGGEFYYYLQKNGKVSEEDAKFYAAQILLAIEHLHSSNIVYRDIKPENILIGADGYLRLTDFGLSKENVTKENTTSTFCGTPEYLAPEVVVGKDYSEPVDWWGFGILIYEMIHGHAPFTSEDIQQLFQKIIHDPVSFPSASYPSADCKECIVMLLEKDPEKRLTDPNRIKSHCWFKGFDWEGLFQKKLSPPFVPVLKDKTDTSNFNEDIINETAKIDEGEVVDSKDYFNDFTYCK

T3: KDD1, kinase-dead EhAGCK1 (K147A and D241A) (Entamoeba histolytica, UniProt C4M2W0 1-433, K147A | D241A)
T3 construct: source: E. coli C41(DE3), purified (Ni2+-NTA)
T3 sequence: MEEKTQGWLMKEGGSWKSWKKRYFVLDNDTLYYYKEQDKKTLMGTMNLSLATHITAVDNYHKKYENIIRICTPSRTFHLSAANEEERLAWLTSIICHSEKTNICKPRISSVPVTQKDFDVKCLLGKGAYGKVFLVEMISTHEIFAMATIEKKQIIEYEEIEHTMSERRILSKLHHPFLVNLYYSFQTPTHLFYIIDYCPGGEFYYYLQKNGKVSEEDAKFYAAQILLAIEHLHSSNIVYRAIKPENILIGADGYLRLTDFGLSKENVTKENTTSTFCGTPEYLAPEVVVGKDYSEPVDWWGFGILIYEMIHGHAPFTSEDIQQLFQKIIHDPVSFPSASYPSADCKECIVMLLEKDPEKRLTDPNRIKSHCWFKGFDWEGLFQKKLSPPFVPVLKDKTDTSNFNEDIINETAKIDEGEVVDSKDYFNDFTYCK

T4: KDD2, kinase-dead EhAGCK2 (K147A and D242A) (Entamoeba histolytica, UniProt C4M3C2 1-434, K147A | D242A)
T4 construct: source: E. coli C41(DE3), purified (Ni2+-NTA)
T4 sequence: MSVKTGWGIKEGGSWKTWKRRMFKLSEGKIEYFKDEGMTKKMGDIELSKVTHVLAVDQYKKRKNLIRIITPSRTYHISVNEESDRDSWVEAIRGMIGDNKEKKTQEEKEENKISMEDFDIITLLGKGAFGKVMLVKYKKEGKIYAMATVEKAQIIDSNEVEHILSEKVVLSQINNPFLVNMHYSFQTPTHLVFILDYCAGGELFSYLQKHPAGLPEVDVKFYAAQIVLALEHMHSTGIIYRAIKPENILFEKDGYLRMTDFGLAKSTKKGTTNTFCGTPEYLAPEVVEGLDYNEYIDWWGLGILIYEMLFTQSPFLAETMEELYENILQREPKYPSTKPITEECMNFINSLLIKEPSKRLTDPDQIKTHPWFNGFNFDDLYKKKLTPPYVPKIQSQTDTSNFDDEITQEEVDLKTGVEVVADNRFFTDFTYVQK


Key:
[1] = substrate: Nc1ncnc2c1ncn2[C@@H]1O[C@H](COP(=O)(O)OP(=O)(O)OP(=O)(O)O)[C@@H](O)[C@H]1O; experiment: ADP-Glo luminescent kinase assay with 0-1000 uM ATP, 50 uM HsGSK3 peptide (GRPRTTSFAESCK) as co-substrate and 20 uM kinase, pH 7.5, 30 °C, Michaelis-Menten fit.; type: biochemical
Procedure: (§1) Fig 6 Graphs representing the Michaelis-Menten kinetics of EhAGCK1 and EhAGCK2. Panel A-D represents the Km and Vmax for peptide substrates, assays were performed in the presence of 20 μM EhAGCK1 (WT and KDD1) and EhAGCK2 (WT and KDD2) proteins were assayed in the presence of 250 μM ATP and serial dilutions (0 μM to 200 μM) of EhRhoGEF, EhCoactosin, and HsGSK3 peptide substrates. […] Panel E-H represents the Km and Vmax for ATP, assays were assessed in the presence of 50 μM peptide substrates (EhRhoGEF, EhCoactosin, and HsGSK3), serial dilution(0 μM to 1000 μM) of ATP, and 20 μM of the proteins EhAGCK1 (WT, and KDD1) and EhAGCK2 (WT, and KDD2). […] Relative luminescence unit (RLU) values are converted to μM/min using the method described in the Materials and Methods section. […]
(§2) Further, we determined the Km and Vmax values for ATP as it serves a vital metabolic molecule and substrate crucial for kinase activity, determining ATP Km and Vmax a key biochemical parameters for all kinases. […] Additionally, we compared previously determined Km and Vmax values of human Akt proteins in the presence of GSK3 peptide with our kinase protein results, which are presented in Table 1.
(§3) The phosphorylation activity of kinases was measured using the ADP-Glo kinase assay kit according to the manufacturer’s protocol with few modifications (Promega, Madison, WI, Catalogue number V6930). […]

[2] = substrate: Nc1ncnc2c1ncn2[C@@H]1O[C@H](COP(=O)(O)OP(=O)(O)OP(=O)(O)O)[C@@H](O)[C@H]1O; experiment: ADP-Glo luminescent kinase assay with 0-1000 uM ATP, 50 uM EhCoactosin peptide as co-substrate and 20 uM kinase, pH 7.5, 30 °C, Michaelis-Menten fit.; type: biochemical
Procedure: as §1, §2, §3

[3] = substrate: Nc1ncnc2c1ncn2[C@@H]1O[C@H](COP(=O)(O)OP(=O)(O)OP(=O)(O)O)[C@@H](O)[C@H]1O; experiment: ADP-Glo luminescent kinase assay with 0-1000 uM ATP, 50 uM EhRhoGEF peptide as co-substrate and 20 uM kinase, pH 7.5, 30 °C, Michaelis-Menten fit.; type: biochemical
Procedure: as §1, §2, §3

[4] = target: T1, EhAGCK2 WT (Entamoeba histolytica AGC …); experiment: MST; His-tagged kinase labelled with RED-tris-NTA 2nd Generation dye, kept constant (50 nM by the legend); unlabelled peptide in 16 1:1 dilutions, 500 uM to 153 nM as printed; 50 mM Tris-Cl pH 8, 150 mM NaCl, 1 mM beta-ME, 5% glycerol; 25 C; Monolith NT.115, 50% LED, medium MST power; conditions: both partners purified
[5] = target: T2, EhAGCK1 WT (Entamoeba histolytica AGC …); experiment: as above; conditions: both partners purified
[6] = target: T3, KDD1, kinase-dead EhAGCK1 (K147A and …); experiment: as above; conditions: both partners purified
[7] = target: T4, KDD2, kinase-dead EhAGCK2 (K147A and …); experiment: as above; conditions: both partners purified

Row | Binder | Km [1] [μM uM] | Km [2] [µM] | Km [3] [µM] | Kd [4] [µM] | Kd [5] [µM] | Kd [6] [µM] | Kd [7] [µM]
1 | EhAGCK2 WT (Entamoeba histolytica HM-1:IMSS) (protein, full-length, His-tagged (pCold), expressed in E. coli C41(DE3)) MSVKTGWGIKEGGSWKTWKRRMFKLSEGKIEYFKDEGMTKKMGDIELSKVTHVLAVDQYKKRKNLIRIITPSRTYHISVNEESDRDSWVEAIRGMIGDNKEKKTQEEKEENKISMEDFDIITLLGKGAFGKVMLVKYKKEGKIYAMKTVEKAQIIDSNEVEHILSEKVVLSQINNPFLVNMHYSFQTPTHLVFILDYCAGGELFSYLQKHPAGLPEVDVKFYAAQIVLALEHMHSTGIIYRDIKPENILFEKDGYLRMTDFGLAKSTKKGTTNTFCGTPEYLAPEVVEGLDYNEYIDWWGLGILIYEMLFTQSPFLAETMEELYENILQREPKYPSTKPITEECMNFINSLLIKEPSKRLTDPDQIKTHPWFNGFNFDDLYKKKLTPPYVPKIQSQTDTSNFDDEITQEEVDLKTGVEVVADNRFFTDFTYVQK | 291± 74.4 | 92.06 |  |  |  |  | 
2 | EhAGCK1 WT (Entamoeba histolytica HM-1:IMSS) (protein, full-length, His-tagged (pCold), expressed in E. coli C41(DE3)) MEEKTQGWLMKEGGSWKSWKKRYFVLDNDTLYYYKEQDKKTLMGTMNLSLATHITAVDNYHKKYENIIRICTPSRTFHLSAANEEERLAWLTSIICHSEKTNICKPRISSVPVTQKDFDVKCLLGKGAYGKVFLVEMISTHEIFAMKTIEKKQIIEYEEIEHTMSERRILSKLHHPFLVNLYYSFQTPTHLFYIIDYCPGGEFYYYLQKNGKVSEEDAKFYAAQILLAIEHLHSSNIVYRDIKPENILIGADGYLRLTDFGLSKENVTKENTTSTFCGTPEYLAPEVVVGKDYSEPVDWWGFGILIYEMIHGHAPFTSEDIQQLFQKIIHDPVSFPSASYPSADCKECIVMLLEKDPEKRLTDPNRIKSHCWFKGFDWEGLFQKKLSPPFVPVLKDKTDTSNFNEDIINETAKIDEGEVVDSKDYFNDFTYCK | 241.7 ±22.2 |  | 125.4 |  |  |  | 
3 | GRPRTTSFAESCK (also called human GSK3 peptide substrate; source: synthetic peptide) [human GSK3 (HsGSK3) peptide] |  |  |  | 0.0848 | 2.62 | 1080 | 2.38
